As a reminder, the Kd is a measure of binding affinity in units of concentration.

“Also recorded” adds a separate entry of the source.

The results in this text go back to patent publication US20230405133A1, “PURIFIED MULTIVALENT PROTEIN-HYALURONIC ACID POLYMER CONJUGATES” (Valitor, Inc., priority 2022, published 2023).

The target in data set [1] is T1, Human VEGF 165 (Homo sapiens, UniProt P15692).
T1 construct: Avi; purchased R&D Systems AVI-293-050
T1 sequence (P15692 27-191 isoform P15692-4): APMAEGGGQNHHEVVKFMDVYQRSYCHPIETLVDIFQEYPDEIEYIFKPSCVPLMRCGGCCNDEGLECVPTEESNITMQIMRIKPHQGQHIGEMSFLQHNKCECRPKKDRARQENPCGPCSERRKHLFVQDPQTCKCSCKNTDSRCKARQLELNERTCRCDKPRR
As to the kind of experiment: Accelerated 37° C. stability study, VEGF binding by BLI over time. The note with it: DARPin MVPs, aging 28 and 32 days at 37° C., compared with Conjugate 2. As to the method: MVP stability was assessed by setting up a long term accelerated […] stability by maintaining the MVPs at 37° C. at 5-10X the therapeutic concentration in pH 7.3 vitreous mimetic buffer (Table 19) or pH 7.4 PBS 0.01% tween 20. MVP stability was assessed using SEC MALS or SEC, DLS, and/or BLI analysis of samples removed after various times.
Long-term 37° C. stability studies were set up to assess composition impact on MVP stability. MVPs were synthesized under sterile conditions and diluted to around 0.4 mg/mL in a sterile filtered human vitreous mimetic buffer. This concentration is 5X higher than intravitreal therapeutic concentration of our predicted clinical dose. […] At discrete timepoints, one aliquot from each sample was removed from the plate under sterile conditions and analyzed. […] Then, the protein concentration is measured to adjust for any differences in volume that may have occurred. The binding affinity to is measured using BLI. […] To monitor changes in radius over time, the samples are spun for 5 minutes at 5000 g to remove any large aggregates or dust particles and the Rh is measured using DLS without any sample dilution.
The change in binding affinity over time using biolayer interferometry (BLI) was also determined. […] Analytes were prepared at the top concentration determined in pilot reactions in BLI buffer and serially diluted 1:3 two to five more times using BLI buffer. […]

The nature of data set [2]: SEC analysis of MVP stability samples aged at 37° C. It is filed as physicochemical. The note with it: anti-VEGF DARPin MVPs stored up to 71 days at 37° C., compared with Conjugate 2. As to the method: Stability study samples were analyzed using HPLC size exclusion chromatography (SEC). This method was also used to analyze MVP formation and percent unreacted protein after purification. To assess stability via SEC, MVP was filtered to remove particles and analyzed using a Shodex 1 MDa Ohpak LB-804, Shodex KW-404 or 405, or Phenomenex PolySep6000 column with DPBS or appropriate solvent as the mobile phase to get baseline trace at 280 nm, 230 nm, etc. After various time points samples were removed and analyzed using the same SEC method. Increases in retention time and peak width relative to the baseline sample indicated degradation. In addition, decreases in MVP peak area and/or increases in monomer and dimer protein species peak area also indicate MVP degradation. Percent conjugate loss was quantified by comparing peak area differences with time. In the future, the SEC stability analysis will be coupled with MALS to quantify molecular weight and valency changes of the conjugate with age at different temperatures. […]
Stability study samples were also analyzed by coupling SEC with MALS analysis for determination of MVP radius of gyration (Rg,z) and molecular weight at different time points after aging at 37° C. […] System-specific calibration numbers, normalization coefficients, delay volumes, and band broadening terms were determined for the system prior to analysis. […]

The target of data set [3] is T2, Human VEGF 165 (human, UniProt P15692-4 27-191).
T2 construct: Loaded on the BLI probe as the ligand; also called BLI ligand Human VEGF 165 (Avi tag, R&D Systems AVI-293-050); not shown: Avi tag
In words: BLI, VEGF 165 on probe; sample aged 3 days at 37 °C; aged 3 days at 37 C (sample 1). (BLI is a label-free optical method that tracks binding on a fibre tip over time.)

The target of data set [4] is T2, Human VEGF 165. In words: BLI, VEGF 165 on probe, conjugate as analyte, t = 0; t = 0, fresh conjugate, not aged.
Data set [5] concerns the target T2, Human VEGF 165. In words: BLI; KD after 3 days at 37 °C against KD at t = 0; fold change of KD, 3 days at 37 C against t = 0.
The target of data set [6] is T2, Human VEGF 165. In words: BLI, VEGF 165 on probe, t = 0 (repeats Table 15).
In data set [7] the target is T2, Human VEGF 165. As to the kind of experiment: BLI; KD after 3 days at 37 °C against KD at t = 0.
Data set [8] concerns the target T2, Human VEGF 165. In words: BLI; KD after 5 days at 37 °C against KD at t = 0.
Data set [9] addresses T2, Human VEGF 165. In words: BLI, VEGF 165 on probe, conjugate as analyte, t = 0.
Data set [10] deals with T2, Human VEGF 165. In words: BLI, VEGF 165 on probe; sample aged 3 days at 37 °C.
For data set [11], the target named is T2, Human VEGF 165. In words: BLI, VEGF 165 on probe; sample aged 5 days at 37 °C.
Data set [12] deals with T2, Human VEGF 165. In words: BLI; KD after 4 days at 37 °C against KD at t = 0.
For data set [13], the target named is T2, Human VEGF 165. As to the kind of experiment: BLI; KD after 11 days at 37 °C against KD at t = 0.
Data set [14] concerns the target T2, Human VEGF 165. As to the kind of experiment: BLI, VEGF 165 on probe; sample aged 4 days at 37 °C.
The target of data set [15] is T2, Human VEGF 165. As to the kind of experiment: BLI, VEGF 165 on probe; sample aged 11 days at 37 °C.
The target in data set [16] is T2, Human VEGF 165. As to the kind of experiment: BLI, VEGF 165 on probe, t = 0 (repeats Table 15); limit of detection.
The target of data set [17] is T2, Human VEGF 165. As to the kind of experiment: BLI, VEGF 165 on probe, conjugate as analyte, t = 0; value is the limit of detection.
Data set [18] is classed as physicochemical. The procedure: 25× volumes of lysis buffer 25 mM HEPES, 20 mM imidazole, 400 mM sodium chloride, 0.5 mM EDTA, 5% glycerol, 0.01% Tween 20, pH 7.5 were added to E. coli pellets harvested from 25 mL TB culture, and sonicated 5× on ice at 40% output using a probe sonicator. Once lysed, whole cell extracts were clarified at 10K*g and 100 uL of supernatant were aliquoted and subjected to incubations at 50° C., 60° C., 70° C., and 80° C. for 15 minutes, followed by a ten-minute incubation on ice. Thermally precipitated proteins were removed at 10K*g for five minutes, and soluble extract fractions were combined directly with Laemmli sample buffer, denatured, and run on 4-20% SDS-PAGE to evaluate yield and stability.

B1: Conjugate 1: HA conjugate of anti-VEGF DARPin peptide SEQ ID NO: 92, made from Method 5 intermediate 5-4 (MP2H) (conjugate)
chain: GSDLDKKLLEAARAGQDDEVRILMANGADVNARDSTGWTPLHLAAPWGHPEIVEVLLKNGADVNAADFQGWTPLHLAAAVGHLEIVEVLLKYGADVNAQDKFGKTAFDISIDNGNEDLAEILQKAAGGGSGGGS
modifications: hyaluronic acid conjugate; anti-VEGF DARPIN
On to B1, for which the “association constant (Kon) initially and with aging” value with Human VEGF 165 [1] is “lower Kon and slower association initially and with aging”. Moreover, the “SEC retention time / radius change with aging” value in data set [2] is “much larger increase in retention time and contraction of radius; also recorded: larger losses in radius with aging”.

B2: Conjugate 8 (anti-VEGF E1-1 SEQ ID NO: 81 with aH linker SEQ ID NO: 21 on hyaluronic acid, intermediate 5-7) (VHH)
VHH: EVQLQASGGGFVQPGGSLRLSCAASGGGSDAGTMGWFRQAPGKEREFVSAISWAGTAWRYYADSVKGRFTISRDNSKNTVYLQMNSLRAEDTATYYCALGSYEMDHHYWGQGTQVTVSS
modifications: C-terminal Cys of the peptide linker bound by its thiol to the maleimide of the organic linker MP2H on hyaluronic acid (830 kDa)
notes: Multivalent peptide-hyaluronic acid conjugate (MVP); peptide valency 94; Method 5 intermediate; also called anti-VEGF E1-1 MVP (Method 5)
As to B2, the results for the Kd with Human VEGF 165 [3] and with Human VEGF 165 [4] were 0.557 nM and 0.184 nM, respectively. The “Change in KD to t = 0” value in the data set with Human VEGF 165 [5] was found to be 3 fold.

B3: Conjugate 11 (anti-VEGF E1-1 SEQ ID NO: 81 with aH linker SEQ ID NO: 21 on hyaluronic acid, intermediate 5-2) (VHH)
VHH: B2 VHH
modifications: C-terminal Cys of the peptide linker bound by its thiol to the maleimide of the organic linker MP2H on hyaluronic acid (830 kDa)
notes: Multivalent peptide-hyaluronic acid conjugate (MVP); peptide valency 47; Method 5 intermediate
Consider B3, for which the Kd with Human VEGF 165 [6] came to 1.04 nM; with Human VEGF 165 [9], 1.04 nM; with Human VEGF 165 [10], 6.75 nM; in the data set with Human VEGF 165 [11], 21.9 nM. For the same molecule, the “Change in KD to t = 0” value with Human VEGF 165 [7] stood at 7 fold; with Human VEGF 165 [8] it was 21 fold.

B4: Conjugate 16 (anti-VEGF VHH SEQ ID NO: 91 with aH linker SEQ ID NO: 21 on hyaluronic acid, intermediate 2-6) (VHH)
VHH: DVQLVESGGGLVQPGGSLRLSCAASGRTFSSYSMGWFRQAPGKEREFVVAISKGGYKYDAVSLEGRFTISRDNAKNTVYLQINSLRPEDTAVYYCASSRAYGSSRLRLADTYEYWGQGTLVTVSS
modifications: C-terminal Cys of the peptide linker bound by its thiol to the maleimide of the organic linker MP2H on hyaluronic acid (830 kDa)
notes: Multivalent peptide-hyaluronic acid conjugate (MVP); peptide valency 101; Method 2 intermediate; also called BI VHH anti-VEGF MVP
Regarding B4, the results for the “Change in KD to t = 0” value in the data set with Human VEGF 165 [12] and with Human VEGF 165 [13] were 654 fold and 648 fold, respectively. Besides, the Kd in the data set with Human VEGF 165 [14] is 0.654 nM; with Human VEGF 165 [15] it was 0.648 nM; with Human VEGF 165 [16] it was less than 1 pM; in the data set with Human VEGF 165 [17] it was less than 1 pM.

B5: aTNFaMu_3MUT: anti-TNFα single domain antibody (mouse), aTNFaMu with three point mutations, SEQ ID NO: 72 (protein)
VHH: QVQLQESGGGLVQAGGSLRLSCAASGGTFSSIIMAWFRQAPGKEREFVGAVSWSGGTTVYADSVKGRFTISRDSARKSVYLQMNSLKPEDTAVYYCAARPYQKYNWASASYNVWGQGTQVTVSS
modifications: aTNF-a mu 3MUT
Consider B5, for which, in data set [18], the “thermal stability of the protein in E. coli cell extracts” value is “about 70 °C”.
